# In patent US20260347495 (published 2026):
# Legend:
# transferrin = transferrin (human, UniProt P02787); experiment: ELISA
# lactotransferrin = lactotransferrin (human, UniProt P02788); experiment: ELISA
# lactotransferrin, sequence (P02788 20-710): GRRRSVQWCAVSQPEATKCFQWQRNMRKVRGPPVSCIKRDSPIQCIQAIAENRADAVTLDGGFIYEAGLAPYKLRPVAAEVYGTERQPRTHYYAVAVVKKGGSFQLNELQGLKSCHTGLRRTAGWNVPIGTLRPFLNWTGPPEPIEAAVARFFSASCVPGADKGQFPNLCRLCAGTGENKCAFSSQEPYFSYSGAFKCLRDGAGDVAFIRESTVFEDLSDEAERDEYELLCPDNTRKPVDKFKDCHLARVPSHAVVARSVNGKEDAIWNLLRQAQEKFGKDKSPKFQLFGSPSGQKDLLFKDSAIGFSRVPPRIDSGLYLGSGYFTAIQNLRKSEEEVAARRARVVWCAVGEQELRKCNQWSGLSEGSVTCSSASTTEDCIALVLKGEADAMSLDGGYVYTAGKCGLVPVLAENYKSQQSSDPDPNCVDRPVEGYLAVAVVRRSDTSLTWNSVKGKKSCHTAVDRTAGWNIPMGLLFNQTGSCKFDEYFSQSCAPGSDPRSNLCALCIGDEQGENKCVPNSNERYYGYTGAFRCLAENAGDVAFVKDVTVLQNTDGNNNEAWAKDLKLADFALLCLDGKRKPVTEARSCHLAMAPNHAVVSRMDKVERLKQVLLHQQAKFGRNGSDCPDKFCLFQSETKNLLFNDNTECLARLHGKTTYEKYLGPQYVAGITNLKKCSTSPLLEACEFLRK
# transferrin, sequence (P02787 20-698): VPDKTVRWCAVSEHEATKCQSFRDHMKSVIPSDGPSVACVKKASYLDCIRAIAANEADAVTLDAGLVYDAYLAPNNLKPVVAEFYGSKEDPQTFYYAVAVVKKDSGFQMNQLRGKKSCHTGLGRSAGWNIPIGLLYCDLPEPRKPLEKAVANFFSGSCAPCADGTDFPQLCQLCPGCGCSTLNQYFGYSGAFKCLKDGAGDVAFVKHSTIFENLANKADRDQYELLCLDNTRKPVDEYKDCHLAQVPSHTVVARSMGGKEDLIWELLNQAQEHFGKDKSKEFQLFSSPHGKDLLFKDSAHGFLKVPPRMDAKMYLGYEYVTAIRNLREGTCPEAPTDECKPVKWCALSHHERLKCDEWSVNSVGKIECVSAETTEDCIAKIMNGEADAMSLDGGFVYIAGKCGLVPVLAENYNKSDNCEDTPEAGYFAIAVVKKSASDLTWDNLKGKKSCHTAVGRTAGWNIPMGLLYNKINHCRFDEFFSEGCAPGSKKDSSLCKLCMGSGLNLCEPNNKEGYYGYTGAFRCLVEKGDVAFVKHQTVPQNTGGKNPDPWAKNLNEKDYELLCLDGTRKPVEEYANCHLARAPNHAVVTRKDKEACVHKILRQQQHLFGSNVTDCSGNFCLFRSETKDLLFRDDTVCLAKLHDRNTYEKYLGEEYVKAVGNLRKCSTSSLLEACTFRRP
Binder,binding result (transferrin),binding result (lactotransferrin)
"OMT8 (clone 8) (antibody, V domains shown) VH: QVQLQESGPGLVKPSQTLSLTCTVSGGSISSGGYYWSWIRQHPGKGLEWIGYIHYIGSTYQNPSLKSRVTMSVDTSKNQFSLRLTSVTAADTAVYYCARESGDTAMVFDYWGQGTQVTVSS VL: QSALTQPPSASGSPGQSVTISCTGTSSDVGGYNYVSWYQQHPGKAPKVMIYEVSTRPSGVPDRFSGSKSGNTASLTVSGLQAEDEADYYCSSYAGNNNFVFGTGTKVTVL",no binding,no binding
"OMT35 (clone 35) (antibody, V domains shown) VH: QVQLQQSGPGLVKPSQTLSLTCAISGDSVSSNSAAWNWIRQSPSSGLEWLGRTYYRSKWFDDYAVSVKGRITINPDTSKNQFSLQLKFVIPEDTAVYYCARRVHWGGPFDYWGQGTLVTVSS VL: DIQLTQSPSFLSASVGDRVTITCRASQGISSYLAWYQQRPGKAPKVLISVASTLQSGVPSRFSGSGSGTDFTLTISSLQPEDFATYYCQQLTGYPFTFGPGTKVDIK",no binding,no binding
"OMT24 (clone 24) (antibody, V domains shown) VH: QVQLVQSGSELKKPGASVKVSCKASGYTFTTYVMNWVRQAPGQGLEWMGWINTNTGNPTYAQGFTGRFVFSVDTSVSTAYLQISSLKAEDTAVYYCARDRVLLWFGAGYYHYGMDVWGQGTTVTVSS VL: SSELTQDPAVSVALGQTVRITCQGDSLRSYYTSWYQQKPGQAPVFVIYGKNNRPSGIPDRFSGSSSGNTASLTITGAQAEDEADYYCNSRDSSGNHVVFGGGTKLTVL",no binding,no binding
"OMT30 (clone 30) (antibody, V domains shown) VH: QVQLVESGGGVVQPGRSLRLSCAASGFTFSSYGIHWVRQAPGKGLEWVAVIWYDGSNKYYADSVKGRFTISRDNSKNTLYLQMNSLRAEDTAVYYCARRGDSSSWHFDYWGQGTLVTVSS VL: QSALTQPASVSGSPGQSITISCTGTSSDVGRHNLVSWYQQHPGKVPKVMIYEVTKRPAGVSNRFSGSKSGNTASLTISGLQAEDEADYYCCSYAGSSTYVFGTGTRVTVL",no binding,no binding
"OMT36 (clone 36) (antibody, V domains shown) VH: QVQLVQSGAEVKKPGASVKVSCKASGYTFTNYDINWVRQATGQGLEWMGWMNPNSGNTDYVQKFQGRVAMTRITSISTAYLELSSLRSDDTAVYYCARGLHSGDYYSYGMDVWGQGTTVTVSS VL: SYELTQPPSVSVSPGQTARITCSGDALPNQYAYWYQQKPGQAPVLVIYKDSERPSGIPERFSGSSSGTTVTLTISGVQAEDEADYYCQSADSSGTVVFGGGTKLSVL",no binding,no binding
